The numbers were not newly measured in PMC2730980, which cites them from elsewhere.

pKd: −log10 of the molar value.

By pKd is commonly meant the negative decadic logarithm of the Kd, by convention in mol/L.

The data set addresses Synaptotagmin II (Rattus norvegicus) (UniProt P29101).
Sequence of UniProt P29101 (P29101 whole entry): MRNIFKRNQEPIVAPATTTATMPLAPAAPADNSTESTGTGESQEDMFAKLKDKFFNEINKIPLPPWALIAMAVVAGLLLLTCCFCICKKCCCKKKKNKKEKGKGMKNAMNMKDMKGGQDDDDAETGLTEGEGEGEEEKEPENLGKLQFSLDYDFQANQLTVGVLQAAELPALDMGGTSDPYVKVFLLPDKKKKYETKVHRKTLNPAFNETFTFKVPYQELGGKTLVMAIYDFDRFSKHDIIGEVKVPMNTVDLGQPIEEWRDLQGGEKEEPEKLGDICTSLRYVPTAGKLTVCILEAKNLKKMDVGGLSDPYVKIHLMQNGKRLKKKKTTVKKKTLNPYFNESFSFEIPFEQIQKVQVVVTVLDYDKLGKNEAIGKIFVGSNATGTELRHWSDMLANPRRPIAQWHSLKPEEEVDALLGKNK

Turning to “Botulinum neurotoxin type B (from UniProt P10844)”, the pKd was 9.40.
